Source: patent publication US20250353912A1 (NEW YORK UNIVERSITY, published 2025)
Numbering of substitutions follows the chain as printed.

B1: IBA1-7 (antibody, V domains shown)
VH: EVQLVESGGGLVQPGGSLRLSCAASGFTLSSSSIHWVRQAPGKGLEWVASISSYYGSTSYADSVKGRFTISADTSKNTAYLQMNSLRAEDTAVYYCARMHYSWQEYYSYDWGMDYWGQGTLVTVSS
VL: DIQMTQSPSSLSASVGDRVTITCRASQSVSSAVAWYQQKPGKAPKLLIYSASSLYSGVPSRFSGSRSGTDFTLTISSLQPEDFATYYCQQSYWWKSLVTFGQGTKVEIKR
notes: phage-display clone
B2: IBA1-19 (antibody, V domains shown)
VH: EVQLVESGGGLVQPGGSLRLSCAASGFTFSYSSIHWVRQAPGKGLEWVASIYPSSGYTSYADSVKGRFTISADTSKNTAYLQMNSLRAEDTAVYYCARGWWYWMAWDYAMDYWGQGTLVTVSS
VL: B1 VL with Y92W, W93M, W94S, K95D, V98I
notes: phage-display clone
B3: IBA1-21 (antibody, V domains shown)
VH: EVQLVESGGGLVQPGGSLRLSCAASGFTISSSSIHWVRQAPGKGLEWVASISSYYGYTSYADSVKGRFTISADTSKNTAYLQMNSLRAEDTAVYYCARYYSYSSGYGYYDYFDWGAMDYWGQGTLVTVSS
VL: B1 VL with S91M, Y92Q, W93Y, W94S, K95G, S96W, V98I
notes: phage-display clone
B4: IBA1-8 (antibody, V domains shown)
VH: EVQLVESGGGLVQPGGSLRLSCAASGFTISYSSIHWVRQAPGKGLEWVASIYPSYGSTSYADSVKGRFTISADTSKNTAYLQMNSLRAEDTAVYYCARWQGYYQPALDYWGQGTLVTVSS
VL: DIQMTQSPSSLSASVGDRVTITCRASQSVSSAVAWYQQKPGKAPKLLIYSASSLYSGVPSRFSGSRSGTDFTLTISSLQPEDFATYYCQQPYYPLITFGQGTKVEIKR
notes: phage-display clone
B5: IBA1-13 (antibody, V domains shown)
VH: EVQLVESGGGLVQPGGSLRLSCAASGFTLSSSSIHWVRQAPGKGLEWVASIYSSYGYTYYADSVKGRFTISADTSKNTAYLQMNSLRAEDTAVYYCARYYYYWYGGMDYWGQGTLVTVSS
VL: DIQMTQSPSSLSASVGDRVTITCRASQSVSSAVAWYQQKPGKAPKLLIYSASSLYSGVPSRFSGSRSGTDFTLTISSLQPEDFATYYCQQGHDMNPVTFGQGTKVEIKR
notes: phage-display clone
B6: AMRA3-22 (antibody, human IgG1, V domains shown)
VH: EVQLVESGGGLVQPGGSLRLSCAASGFTFYSSSIHWVRQAPGKGLEWVAYIYSSSGYTSYADSVKGRFTISADTSKNTAYLQMNSLRAEDTAVYYCARPVNYYYQGALDYWGQGTLVTVSS
VL: B4 VL with P91S, Y92D, Y93M, L95P
notes: phage-display clone; purified as human IgG1/kappa; also called AMRA3-22 hIgG1
B7: AMRA311-16 (antibody, human IgG1, V domains shown)
VH: EVQLVESGGGLVQPGGSLRLSCAASGFTISSSSIHWVRQAPGKGLEWVAYISSYSGYTYYADSVKGRFTISADTSKNTAYLQMNSLRAEDTAVYYCARYWYGHYHSYFGLDYWGQGTLVTVSS
VL: B4 VL with P91S, Y92S, Y93S, P94S
notes: phage-display clone; purified as human IgG1/kappa; also called AMRA311-16 hIgG1
B8: AMRA11-15 (antibody, human IgG1, V domains shown)
VH: EVQLVESGGGLVQPGGSLRLSCAASGFTVYYSSIHWVRQAPGKGLEWVASIYSYYGSTYYADSVKGRFTISADTSKNTAYLQMNSLRAEDTAVYYCARGEKWALDYWGQGTLVTVSS
VL: B5 VL with G91F, H92D, D93F, M94Q, N95Y, P96L, V97I
notes: phage-display clone; purified as human IgG1/kappa

The binders below were run against T1, HLA-A*01:01 in complex with the BTK peptide … conjugated with Ibrutinib (human, ibrutinib covalently bound to Cys) (assay: phage display selection; MBBA).
T1 construct: also called HLA-A*01:01_BTK-Ibrutinib
B1: binds.
B2: binds.
B3: binds.
B4: binds.
B5: binds.

These binders were tested against T2, HLA-A*03:01 in complex with the KRAS (wild type) peptide … (human) (assay: MBBA titration of purified IgG (FIG. 11)).
T2 construct: also called HLA-A*03:01_WTRAS
B6: no binding.
B7: no binding.
B8: no binding.

The binders below were run against T3, HLA-A*11:01 in complex with the KRAS (wild type) peptide … (human) (assay: MBBA titration of purified IgG (FIG. 11)).
T3 construct: also called HLA-A*11:01_WTRAS
B6: no binding.
B7: no binding.
B8: no binding.
